Results taken from paper PMC8563995, “CCA-addition in the cold: Structural characterization of the psychrophilic CCA-adding enzyme from the permafrost bacterium Planococcus halocryophilus” (Computational and Structural Biotechnology Journal, 2021).

System: GstCCA (CCA-adding enzyme, tRNA nucleotidyltransferase) (Geobacillus stearothermophilus)
Assay: EMSA
Conditions: 10 mM MgCl2; 37 °C; EMSA: 50 mM glycine/NaOH pH 8.5, 10 mM MgCl2, 2 mM DTT, 0.3 pmol tRNA, 0-5 µM enzyme, 10 min at 37 °C (GstCCA) or 4 °C and 30 °C (PhaCCA); 5% native PAGE at …

yeast tRNAPhe lacking the CCA terminus
Kd: 1300 nM
